Series [1] has as its target T1, Aβ42WT (Homo sapiens, UniProt P05067). Description: Circular dichroism spectroscopy of Aβ42WT β-sheet formation. To be noted: MBP added to incubates, 37° C. The series is classed as biochemical. From the text:
Aβ42 (□), MBP (□), Aβ42 with MBP (□).
The formation of β-sheet fibrils may be evaluated by circular dichroism (“CD”) spectroscopy. The technique is based on circularly polarized light. The secondary structure of proteins tends to “distort” the polarization toward the elliptical. The degree and direction of the distortion over a range of wavelengths produces spectra that are characteristic of the protein under examination and its secondary structure. One such method, suitable for use in embodiments of the present invention, is summarized below:
Preferably, purified protein is placed in detergent-free, low-salt buffer in a cuvette having a lightpath length on the order of 1 mm. The optimal concentration of the protein may be determined by standard techniques well-known in the art, and confirmed by comparing the spectrum over a range of concentrations, using an instrument (e.g., JASCO) and cuvette properly calibrated with a standard such as d-10-camphorsulfonic acid in water. To acquire a CD spectrum, the sample is scanned over a wavelength range of about 180-260 nm (spectral width approx. 1 nm). A suitable scan rate is of the order of 100 nm/min for a response time of about 2 seconds. Preferably, however, slower scan speeds (e.g., 5 nm/min, response time around 20 seconds) are used to reduce noise.
For orientation: Circular dichroism is the unequal absorption of left and right circularly polarised light.

A further series has as its target wild-type Aβ42 (Homo sapiens, UniProt P05067). Description: Thioflavin T fluorescence assay of Aβ42 fibril formation. It counts as biochemical. To be noted: 12.5 μM Aβ42, 1.56 μM MBP. How it is done: FIG. 19 Thioflavin T analysis for inhibition of Aβ42 fibril formation by MBP. Aβ42 at a concentration of 12.5 μM in PBS in the absence (diamond) or presence of 1.56 μM MBP (triangle) or 1.56 μM […]-lactalbumin (square) as control. The data shown are the mean S.D. of triplicate samples.
The Aβ B binding properties of the exemplary fragments of MBP described herein were determined in a thioflavin T fluorescence assay as follows: Lyophilized Aβ peptides were first resuspended with Me2SO to 2.5 mM, diluted to 12.5 μM in PBS, and then incubated at 37° C. with rocking either alone or with 1.56 μM MBP or bovine α-lactalbumin. Control samples containing 0.5% Me2SO and 1.56 μM MBP or lactalbumin in PBS were also included. At each time point, 100 μl samples of each reaction were placed in a 96-well microplate in triplicate, and 5 μl of 100 µM thioflavin T was added. The plate was mixed and incubated at 22° C. in the dark for 10 min. Fluorescence was measured at 490 nm with an excitation wavelength of 446 nm in a SpectraMax spectrofluorometer (Molecular Devices, Sunnyvale, Calif.) using SoftMax Pro control software. It is apparent that the method enables persons of skill in the art to determine the binding properties of MBP, variants thereof, and fragments thereof for any Aβ-peptide, including mutants thereof.

The target of the next series is wild-type Aβ40 (Aβ40WT) (Homo sapiens, UniProt P05067). Description: Surface plasmon resonance binding to wild-type Aβ40. As to conditions: compared with CAA mutant Aβ40. How it is done: All runs were performed on a Biacore 2000 instrument using 10 mM HEPES (pH 7.4), 150 mM NaCl, 3 mM EDTA, and 0.005% (v/v) Tween 20 as running buffer and diluent. Streptavidiri was conjugated to the surface of three flow cells of a CM5 chip at 10 μl/min using amine coupling chemistry to a final average response level of 1890.2 response units. N-terminally biotinylated Aβ peptides were resuspended in Me2SO to 2.5 mM and serially diluted to 13 nM immediately before application. Biotinylated Aβ40WT and Aβ40DI were bound to individual flow cells at 10 μl/min to achieve an average relative response level of 157.1 response units, leaving flow cell 1 as reference. […] The resultant Rmax of these surfaces was ˜700 response units with MBP as analyte. Purified MBP was passed over all four flow cells at 5, 10, 25, 50, and 100 nM at a flow rate of 30 μl/min for kinetic measurements. […] Surfaces were regenerated with 0.2 M glycine (pH 2.0) and 150 mM NaCl between runs. The resulting sensorgrams were analyzed by BIAanalysis software. Triplicate concentration series were used for each surface.

The target in a further series is Aβ40DI (Homo sapiens, UniProt P05067, D694N/E693Q). Description: Quantitative immunoblot analysis of Aβ40DI fibril assembly. It counts as biochemical. As to conditions: 12.5 μM Aβ40DI, 1.56 μM MBP, up to 12 h. How it is done: Aβ40DI (12.5 μM) was incubated in the absence (A and D) or presence (C and F) of 1.56 […] purified MBP. Bovine a-lactalbumin (Lalb. 1.56 μM) was included as a negative control (B and E). Aliquots were removed at specific time points and analyzed by quantitative immunoblot analysis using anti-Aβ mAb 6E10. […] Data represent the means±S.D. of three separate experiments.
Briefly, samples were heated at 90° C. for 5 min in reducing SDS-PAGE loading buffer, loaded onto gels, and electrophoresed. Gels were transferred to Hybond ECL nitrocellulose membranes (Amersham Biosciences) at 50 V overnight at 4° C. Membranes were blocked in PBS containing 5% milk or bovine serum albumin (BSA; used with biotinylated primary antibodies) at room temperature for 1 h and washed 3×10 min with PBS and 0.05% Tween 20. Membranes were incubated with primary antibodies for 1 h and washed as described above. Next, the membranes were incubated with either horseradish peroxidase-conjugated sheep anti-mouse IgG or horseradish peroxidase-conjugated streptavidin (both from Amersham Biosciences) for 1 h and washed. Detection was accomplished using ECL Western blotting substrate (Pierce), and images were captured either on film or using a VersaDoc 3000 imaging system (Bio-Rad) and quantitated with the manufacturer's Quantity One software.
(Immunoblotting shows a protein as a band on a membrane.)

The next series has as its target Aβ40WT (Homo sapiens, UniProt P05067). Description: Co-immunoprecipitation of MBP with Aβ40WT. The series is classed as binding. To be noted: purified MBP. How it is done:
(§1) AP peptides were resuspended in Me2SO to 2.5 mM and used at 10.8 μM. MBP was used at 1.56 μM. Proteins were combined in 250 μl of incubation buffer (PBS, 0.05% Tween 20, and 1% BSA). Anti-MBP mAb 382 was added to each sample mixture and incubated for 1 h at 4° C. with rocking. After incubation, 20 μl of washed GammaBind protein G-Sepharose beads (Amersham Biosciences) were added to each mixture, followed by incubation for an additional 1 h at 4° C. with rocking. Beads were separated by centrifugation at 8000×g for 2 min. Supernatants were removed, and beads were washed with 1 ml of incubation buffer. Separation and washing were repeated three times. A final wash was performed in PBS and 0.05% Tween 20 to remove excess BSA. Centrifuged beads were combined with 25 μl of reducing SDS-PAGE loading buffer and heated as described above. 10 μl of each sample/loading buffer mixture was loaded onto 10-20% Tricine gels (Invitrogen) and electrophoresed at 125 V for 35 min. Immunoblotting was carried out as described above using either biotinylated anti-MBP mAb 384 or biotinylated anti-Aβ mAb 3D6 as primary antibody. Experiments were performed in triplicate.

For series [2], the target named is T1, Aβ42WT. Briefly: Co-immunoprecipitation of MBP with Aβ42WT. The series is classed as binding. How it is done: as §1

“Also recorded” adds a separate entry of the source.

B1: myelin basic protein (protein)
chain: ASQKRPSQRHGSKYLATASTMDHARHGFLPRHRDTGILDSIGRFFGGDRGAPKRGSGKDSHHPARTAHYGSLPQKSHGRTQDENPVVHFFKNIVTPRTPPPSQGKGRGLSLSRFSWGAEGQRPGFGYGGRASDYKSAHKGFKGVDAQGTLSKIFKLGGRDSRSGSPMARR
notes: myelin basic protein, major form about 18.5 Kd (170 residues); purified protein
B1: in the series with Aβ42WT [1], the “Aβ42WT fibril formation by circular dichroism” value was “prevents fibril formation”. Further, the “inhibition of wild-type Aβ42 fibrillogenesis (thioflavin T)” value with wild-type Aβ42 is listed as “prevents fibrillization; also recorded: inhibited”. Besides, the “binding to wild-type Aβ40” value with wild-type Aβ40 (Aβ40WT) is given as “Significantly weaker binding”. Further, in the series with Aβ40DI, the “accumulation of high molecular mass species of Aβ40DI” value was “allows no high molecular mass species of Aβ40DI to accumulate”. Moreover, the binding by immunoprecipitation result with Aβ40WT was “bound”. The interaction in co-immunoprecipitation entry with Aβ42WT [2] is “interacts”.

(Values after patent US9217013B2, “Treatment of amyloidoses using myelin basic protein and fragments thereof” (The Research Foundation for the State University of New York, priority 2008, dated 2015).)
